Measured values from publication PMC7954794, “Protein context shapes the specificity of SH3 domain-mediated interactions in vivo” (Nature Communications, 2021).

Key:
Format in all cases: cell-based, Saccharomyces cerevisiae
[1] = tested on: Abp1 (1xFLAG); assay: Western blot expression level of Abp1 SH3-swapped baits (Fig. S2A-B); set-up: Flag (2 bands): unit not given here; details: sheet FigS2A-B; for Ratio Swap/WT Flag: Flag signal relative to Abp1 WT (Abp1-1 to Abp1-4 = 1); for Flag (2 bands): Western blot Flag signal (2 bands), Abp1 WT, SH3-deleted or SH3-swapped
How it was run: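 Yeast expressing DHFR F[1,2]-FLAG-tagged baits grown in synthetic complete medium at 30 °C to OD600 ~1.0, lysed with glass beads in Tris pH 7.4/150 mM NaCl/1% Triton X-100. Baits immunoprecipitated on FLAG-M2 beads 120 min at 4 °C, resolved on 10% SDS-PAGE, probed with anti-FLAG HRP (ECL), signals quantified by imager.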

[2] = tested on: ABP1; assay: DHFR-PCA on solid medium, bait ABP1 (Fig. 1B); details: bait ABP1, label = prey; 2-4 replicates
Source text: Supplement 41467_2021_21873_MOESM8_ESM.xlsx, sheet "Fig1B" | column: medsize; medrep; Ratio; Score

[3] = tested on: growth of yeast strains under 51 stress conditions; assay: Growth assays in 51 stress conditions (Fig. 1E-F, S2D, S5B); set-up: key to Growth (Fig. S2D) / growth of ABP1 SH3-swapped strains in stress condition: log2 colony size, average of median per strain (growth score); details: for Growth (Fig. S2D): ABP1 SH3-swapped strains
How it was run: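 Yeast WT, SH3-deleted, KO, SH3-swapped and SH3-shuffled strains pinned in 1536 format, 12 replicates each; pregrown on YPD 2 days at 30 °C, then replicated onto 51 media at 37 °C and imaged every 2 h. Growth score = mean of per-plate median log2 colony size at 74 h.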

B1: WT (protein, UniProt P15891 2-592, looked up)
Actin-binding protein: ALEPIDYTTHSREIDAEYLKIVRGSDPDTTWLIISPNAKKEYEPESTGSSFHDFLQLFDETKVQYGLARVSPPGSDVEKIIIIGWCPDSAPLKTRASFAANFAAVANNLFKGYHVQVTARDEDDLDENELLMKISNAAGARYSIQTSSKQQGKASTPPVKKSFTPSKSPAPVSKKEPVKTPSPAPAAKISSRVNDNNDDDDWNEPELKERDFDQAPLKPNQSSYKPIGKIDLQKVIAEEKAKEDPRLVQKPTAAGSKIDPSSDIANLKNESKLKRDSEFNSFLGTTKPPSMTESSLKNDDDKVIKGFRNEKSPAQLWAERKAKQNSGNAETKAEAPKPEVPEDEPEGEPDVKDLKSKFEGLAASEKEEEEMENKFAPPPKKSEPTIISPKPFSKPQEPVKAEEAEQPKTDYKKIGNPLPGMHIEADNEEEPEENDDDWDDDEDEAAQPPLPSRNVASGAPVQKEEPEQEEIAPSLPSRNSIPAPKQEEAPEQAPEEEIEEEAEEAAPQLPSRSSAAPPPPPRRATPEKKPKENPWATAEYDYDAAEDNELTFVENDKIINIEFVDDDWWLGELEKDGSKGLFPSNYVSLGN
- Ratio Swap/WT Flag [1]: 0.6226
- Flag (2 bands) [1]: 60270

B2: YBL039C (protein, UniProt P28274 1-579, looked up)
CTP synthase 1: MKYVVVSGGVISGIGKGVLASSTGMLMKTLGLKVTSIKIDPYMNIDAGTMSPLEHGECFVLDDGGETDLDLGNYERYLGVTLTKDHNITTGKIYSHVIAKERKGDYLGKTVQIVPHLTNAIQDWIERVAKIPVDDTGMEPDVCIIELGGTVGDIESAPFVEALRQFQFKVGKENFALIHVSLVPVIHGEQKTKPTQAAIKGLRSLGLVPDMIACRCSETLDKPTIDKIAMFCHVGPEQVVNVHDVNSTYHVPLLLLEQKMIDYLHARLKLDEISLTEEEKQRGLELLSKWKATTGNFDESMETVKIALVGKYTNLKDSYLSVIKALEHSSMKCRRKLDIKWVEATDLEPEAQESNKTKFHEAWNMVSTADGILIPGGFGVRGTEGMVLAARWARENHIPFLGVCLGLQIATIEFTRSVLGRKDSHSAEFYPDIDEKNHVVVFMPEIDKETMGGSMRLGLRPTFFQNETEWSQIKKLYGDVSEVHERHRHRYEINPKMVDELENNGLIFVGKDDTGKRCEILELKNHPYYIATQYHPEYTSKVLDPSKPFLGLVAASAGILQDVIEGKYDLEAGENKFNF
- medrep (log2 median colony size normalized to plate background, PCA score) [2]: 3.877

B3: BBC1: yeast SH3-containing protein; SH3-deleted or knockout strain (protein, UniProt P47068 1-1157, looked up)
Myosin tail …: MSEPEVPFKVVAQFPYKSDYEDDLNFEKDQEIIVTSVEDAEWYFGEYQDSNGDVIEGIFPKSFVAVQGSEVGKEAESSPNTGSTEQRTIQPEVEQKDLPEPISPETKKETLSGPVPVPAATVPVPAATVPVPAATAVSAQVQHDSSSGNGERKVPMDSPKLKARLSMFNQDITEQVPLPKSTHLDLENIPVKKTIVADAPKYYVPPGIPTNDTSNLERKKSLKENEKKIVPEPINRAQVESGRIETENDQLKKDLPQMSLKERIALLQEQQRLQAAREEELLRKKAKLEQEHERSAVNKNEPYTETEEAEENEKTEPKPEFTPETEHNEEPQMELLAHKEITKTSREADEGTNDIEKEQFLDEYTKENQKVEESQADEARGENVAEESEIGYGHEDREGDNDEEKEEEDSEENRRAALRERMAKLSGASRFGAPVGFNPFGMASGVGNKPSEEPKKKQHKEKEEEEPEQLQELPRAIPVMPFVDPSSNPFFRKSNLSEKNQPTETKTLDPHATTEHEQKQEHGTHAYHNLAAVDNAHPEYSDHDSDEDTDDHEFEDANDGLRKHSMVEQAFQIGNNESENVNSGEKIYPQEPPISHRTAEVSHDIENSSQNTTGNVLPVSSPQTRVARNGSINSLTKSISGENRRKSINEYHDTVSTNSSALTETAQDISMAAPAAPVLSKVSHPEDKVPPHPVPSAPSAPPVPSAPSVPSAPPVPPAPPALSAPSVPPVPPVPPVSSAPPALSAPSIPPVPPTPPAPPAPPAPLALPKHNEVEEHVKSSAPLPPVSEEYHPMPNTAPPLPRAPPVPPATFEFDSEPTATHSHTAPSPPPHQNVTASTPSMMSTQQRVPTSVLSGAEKESRTLPPHVPSLTNRPVDSFHESDTTPKVASIRRSTTHDVGEISNNVKIEFNAQERWWINKSAPPAISNLKLNFLMEIDDHFISKRLHQKWVVRDFYFLFENYSQLRFSLTFNSTSPEKTVTTLQERFPSPVETQSARILDEYAQRFNAKVVEKSHSLINSHIGAKNFVSQIVSEFKDEVIQPIGARTFGATILSYKPEEGIEQLMKSLQKIKPGDILVIRKAKFEAHKKIGKNEIINVGMDSAAPYSSVVTDYDFTKNKFRVIENHEGKIIQNSYKLSHMKSGKLKVFRIVARGYVGW
- relative_to_wt, D_minus_WT ([3]; Bathophenanthroline 0.1uM, D = SH3 deletion (all SH3s deleted for multi-SH3 proteins), log2 colony size, 74 h at 37 °C, n = 12): -0.7326
- relative_to_wt, KO_minus_WT ([3]; Bathophenanthroline 0.1uM, KO = gene deletion, log2 colony size, 74 h at 37 °C, n = 12): -0.7845
- Growth (Fig. S2D) ([3]; Bathophenanthroline.0.1uM): 10.8555
- Growth (Fig. S2D) ([3]; Bathophenanthroline.10uM): 10.7329
- Growth (Fig. S2D) ([3]; Bathophenanthroline.1uM): 10.8406
- Growth (Fig. S2D) ([3]; CaCl2.100mM): 10.8635
- Growth (Fig. S2D) ([3]; CaCl2.250mM): 10.7473
- Growth (Fig. S2D) ([3]; CaCl2.500mM): 10.2321
- Growth (Fig. S2D) ([3]; Caffein.10mM): 10.0361
- Growth (Fig. S2D) ([3]; Caffein.2mM): 11.0328
- Growth (Fig. S2D) ([3]; CdCl2.100uM): 9.446
- Growth (Fig. S2D) ([3]; CdCl2.10uM): 10.9111
- Growth (Fig. S2D) ([3]; CdCl2.50uM): 9.87
- Growth (Fig. S2D) ([3]; CuSO4.1mM): 10.4195
- Growth (Fig. S2D) ([3]; CuSO4.5mM): 7.7318
- Growth (Fig. S2D) ([3]; Cycloheximide.0.05.uM): 11.1604
- Growth (Fig. S2D) ([3]; Cycloheximide.0.2.uM): 10.7217
- Growth (Fig. S2D) ([3]; Cycloheximide.0.5.uM): 10.1165
- Growth (Fig. S2D) ([3]; DMSO.2.): 11.0262
- Growth (Fig. S2D) ([3]; DMSO.6.): 9.821
- Growth (Fig. S2D) ([3]; DMSO.8.): 9.042
- Growth (Fig. S2D) ([3]; Ethanol.2.): 10.863
- Growth (Fig. S2D) ([3]; Ethanol.6.): 10.43
- Growth (Fig. S2D) ([3]; Ethanol.8.): 10.2184
- Growth (Fig. S2D) ([3]; Galactose.2.): 10.7901
- Growth (Fig. S2D) ([3]; Glycerol.2.): 9.731
- Growth (Fig. S2D) ([3]; Hydroxyurea.25mM): 10.7777
- Growth (Fig. S2D) ([3]; Hygromycin.190uM): 11.0445
- Growth (Fig. S2D) ([3]; Hygromycin.19uM): 11.0769
- Growth (Fig. S2D) ([3]; Hygromycin.95uM): 11.0543
- Growth (Fig. S2D) ([3]; MMS.0.004.): 10.9787
- Growth (Fig. S2D) ([3]; MMS.0.02.): 10.743
- Growth (Fig. S2D) ([3]; MMS.0.04.): 9.98
- Growth (Fig. S2D) ([3]; Menadione.100uM): 10.5737
- Growth (Fig. S2D) ([3]; Menadione.200uM): 10.4364
- Growth (Fig. S2D) ([3]; Menadione.50uM): 10.8865
- Growth (Fig. S2D) ([3]; NaCl.0.25M): 10.7759
- Growth (Fig. S2D) ([3]; NaCl.1M): 9.566
- Growth (Fig. S2D) ([3]; Nitroquinoline.10uM): 10.676
- Growth (Fig. S2D) ([3]; Nitroquinoline.50uM): 10.6106
- Growth (Fig. S2D) ([3]; Nystatin.0.01uM): 10.9601
- Growth (Fig. S2D) ([3]; Nystatin.0.1uM): 11.003
- Growth (Fig. S2D) ([3]; Raffinose.2.): 11.0344
- Growth (Fig. S2D) ([3]; Rapamycin.10nM): 9.767
- Growth (Fig. S2D) ([3]; Rapamycin.50nM): 9.406
- Growth (Fig. S2D) ([3]; SC.pH3): 10.4328
- Growth (Fig. S2D) ([3]; SC.pH6): 11.0565
- Growth (Fig. S2D) ([3]; SDS.0.01.): 11.0008
- Growth (Fig. S2D) ([3]; SDS.0.02.): 11.0385
- Growth (Fig. S2D) ([3]; SDS.0.05.): 10.9076
- Growth (Fig. S2D) ([3]; Sorbitol.10mM): 11.0218
- Growth (Fig. S2D) ([3]; Sorbitol.1mM): 10.99
- Growth (Fig. S2D) ([3]; Sorbitol.5mM): 10.8909
- Ratio Swap/WT Flag [1]: 0.7943
- Flag (2 bands) [1]: 76893
